Where two headings read alike, the source gives them in different places.
T1: human GM-CSFRα-6His (human, UniProt P15509 23-320)
T1 construct: pTT5-GMRa-6his (ECD), made in 293F cells; also called GMRah; GMRa-6his(ECD)
T1 sequence: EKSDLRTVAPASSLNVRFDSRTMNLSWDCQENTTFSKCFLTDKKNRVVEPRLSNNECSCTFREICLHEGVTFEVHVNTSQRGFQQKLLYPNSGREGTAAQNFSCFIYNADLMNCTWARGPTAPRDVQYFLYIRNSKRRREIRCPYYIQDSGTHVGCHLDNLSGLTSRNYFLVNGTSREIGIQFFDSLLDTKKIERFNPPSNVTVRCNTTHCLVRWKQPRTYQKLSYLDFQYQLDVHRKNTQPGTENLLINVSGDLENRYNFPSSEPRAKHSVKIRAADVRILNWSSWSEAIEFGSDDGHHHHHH

T2: human GM-CSFRα, full length on cells (human, UniProt P15509 23-400)
T2 sequence: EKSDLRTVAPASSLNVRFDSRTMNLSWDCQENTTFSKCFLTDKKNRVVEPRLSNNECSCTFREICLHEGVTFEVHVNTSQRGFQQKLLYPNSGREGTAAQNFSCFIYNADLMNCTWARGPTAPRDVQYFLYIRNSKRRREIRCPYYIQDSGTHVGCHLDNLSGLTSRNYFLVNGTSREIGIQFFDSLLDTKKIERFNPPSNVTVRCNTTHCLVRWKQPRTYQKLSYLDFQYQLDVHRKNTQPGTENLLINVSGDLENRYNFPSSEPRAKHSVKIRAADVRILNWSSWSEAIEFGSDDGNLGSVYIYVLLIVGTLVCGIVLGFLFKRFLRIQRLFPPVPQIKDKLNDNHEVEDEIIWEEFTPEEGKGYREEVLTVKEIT


Tests used:
human GM-CSFRα-6His [1] = biological target: T1, human GM-CSFRα-6His; assay: ELISA on human GM-CSFRα, antibodies as human IgG1; x axis 'Log Ab concentration', no unit
[2] = biological target: T2, human GM-CSFRα, full length on cells; assay: cell-based or functional assay
human GM-CSFRα-6His [3] = biological target: T1, human GM-CSFRα-6His; assay: ELISA on human GM-CSFRα, antibodies as human IgG1; x axis 'Log Ab concentration', no unit; remark: listed apart in the source

Row | binding result (human GM-CSFRα-6His [1]) | binding result (human GM-CSFRα-6His [3]) | Binder | other results
1 |  | binds | E09-IgG1 (antibody, V domains shown, human IgG1, human kappa; also called E9) VH: QMQLVQSGAEVKKPGASVKVSCKVSGHTLTELSMHWVRQAPGKGLEWMGGFDPEDGETIYAQKFQGRVTMTGDTSTDTAYLELSSLRSEDTALYYCATGRYCGHASCYGFDYWGQGTLVTVSS VL: EIVMTQSPATLSLSPGERATLSCRASQSVSSYLAWYQQKPGQAPRLLIYGASSRATGIPDRFSGSGSGTDFTLTISRLEPEDFAVYYCQQYNNWPPTFGQGTKLEIK | 
2 |  | binds | E30-IgG1 (antibody, V domains shown, human IgG1, human kappa) VH: QMQLVQSGAEVKKPGASVKVSCKVSGHTLTELSIHWVRQAPGKGLEWMGGFDPEDGETIYAQKFQGRVTMTGDTSTDTAYLELSSLRSEDTALYYCATGRYCSTDTCYGFDYWGQGTLVTVSS VL: EIVMTQSPATLSLSPGERATLSCRASQSVSSYLAWYQQKPGQAPRLLIYGASSRATGIPDRFSGSGSGTDFTLTISRLEPEDFAVYYCQQYDNSPHTFGQGTKLEIK | 
3 |  | binds | E54-IgG1 (antibody, V domains shown, human IgG1, human kappa) VH: QMQLVQSGAEVKKPGASVKVSCKVSGYTLTELSMHWVRQAPGKGLEWMGGFDPEDGETIYAQKFQGRVTMTGDTSTDTAYLELSSLRSEDTALYYCATGRYSSYDIAYGFDYWGQGTLVTVSS VL: EIVMTQSPATLSLSPGERATLSCRASQSVSSYLAWYQQKPGQAPRLLIYGASSRATGIPDRFSGSGSGTDFTLTISRLEPEDFAVYYCQQYNSSPPTFGQGTKLEIK | 
4 | binds |  | E172-IgG1 (antibody, V domains shown, human IgG1, human kappa) VH: QMQLVQSGAEVKKPGASVKVSCKVSGYTLTELSMHWVRQAPGKGLEWMGGFDPEDGETIYAQKFQGRVTMTGDTSTDTAYLELSSLRSEDTALYYCATGRYANLYNNYGFDYWGQGTLVTVSS VL: EIVMTQSPATLSLSPGERATLSCRASQSVSSYLAWYQQKPGQAPRLLIYGASSRATGIPDRFSGSGSGTDFTLTISRLEPEDFAVYYCQQYNNWPPTFGQGTKLEIK | 
5 |  | binds | E27-IgG1 (antibody, V domains shown, human IgG1, human kappa) VH: QMQLVQSGAEVKKPGASVKVSCKVSGYTLTELSIHWVRQAPGKGLEWMGGFDPEDGETIYAQKFQGRVTMTGDTSTDTAYLELSSLRSEDTALYYCATGRYISFMFTYGFDYWGQGTLVTVSS VL: EIVMTQSPATLSLSPGERATLSCRASQSVSSYLAWYQQKPGQAPRLLIYGASSRATGIPDRFSGSGSGTDFTLTISRLEPEDFAVYYCQQYNNWPPTFGQGTKLEIK | 
6 | binds |  | E83-IgG1 (antibody, V domains shown, human IgG1, human kappa) VH: QMQLVQSGAEVKKPGASVKVSCKVSGYTLTELSIHWVRQAPGKGLEWMGGFDPEDGETIYAQKSQGRVTMTGDTSTDTAYLELSSLRSEDTALYYCATGRYCFYDLCYGFDYWGQGTLVTVSS VL: EIVMTQSPATLSLSPGERATLSCRASQSVSSYLAWYQQKPGQAPRLLIYGASSRATGIPDRFSGSGSGTDFTLTISRLEPEDFAVYYCQQYSNSPPTFGQGTKLEIK | 
7 |  | binds | E34-IgG1 (antibody, V domains shown, human IgG1, human kappa) VH: QMQLVQSGAEVKKPGASVKVSCKVSGYTLTELSIHWVRQAPGKGLEWMGGFDPEDGETIYAQKFQGRVTMTGDTSTDTAYLELSSLRSEDTALYYCATGRYSFTDLAYGFDYWGQGTLVTVSS VL: EIVMTQSPATLSLSPGERATLSCRASQSVSSYLAWYQQKPGQAPRLLIYGASSRATGIPDRFSGSGSGTDFTLTISRLEPEDFAVYYCQQYDSSPPTFGQGTKLEIK | 

Continued, binder first:

Row | Binder | binding result (human GM-CSFRα-6His [1]) | binding result (human GM-CSFRα-6His [3]) | other results
8 | E01-IgG1 (antibody, V domains shown, human IgG1, human kappa; also called E1) VH: QMQLVQSGAEVKKPGASVKVSCKVSGHTLTELSIHWVRQAPGKGLEWMGGFDPEDGETNYAQKSQGRVTMTGDTSTDTAYLELSSLRSEDTALYYCATGRYCSTDTCYGFDYWGQGTLVTVSS VL: EIVMTQSPATLSLSPGERATLSCRASQSVSSYLAWYQQKPGQAPRLLIYGASSRATGIPDRFSGSGSGTDFTLTISRLEPEDFAVYYCQQYDNWPPTFGQGTKLEIK | binds |  | 
9 | E35-VH28E-VL30C-IG4 (antibody, IgG4, V domains shown) VH: QMQLVQSGAEVKKPGASVKVSCKVSGYELTELSIHWVRQAPGKGLEWMGGFDPEDGETIYAQKFQGRVTMTGDTSTDTAYLELSSLRSEDTALYYCATGRYTSLATTYGFDYWGQGTLVTVSS VL: EIVMTQSPATLSLSPGERATLSCRASQSVCSYLAWYQQKPGQAPRLLIYGASSRATGIPDRFSGSGSGTDFTLTISRLEPEDFAVYYCQQYDNWPYTFGQGTKLEIK |  |  | IC50, TF-1 cell proliferation [2]: 0.0208 µg/mL
10 | E35-VH28H-VL30L-93D-IG4 (antibody, IgG4, V domains shown) VH: QMQLVQSGAEVKKPGASVKVSCKVSGYHLTELSIHWVRQAPGKGLEWMGGFDPEDGETIYAQKFQGRVTMTGDTSTDTAYLELSSLRSEDTALYYCATGRYTSLATTYGFDYWGQGTLVTVSS VL: EIVMTQSPATLSLSPGERATLSCRASQSVLSYLAWYQQKPGQAPRLLIYGASSRATGIPDRFSGSGSGTDFTLTISRLEPEDFAVYYCQQYDDWPYTFGQGTKLEIK |  |  | IC50, TF-1 cell proliferation [2]: 0.0241 µg/mL
11 | E84-IgG1 (antibody, V domains shown, human IgG1, human kappa) VH: QMQLVQSGAEVKKPGASVKVSCKVSGYTLTELSMHWVRQAPGKGLEWMGGFDPEDGETIYAQKSQGRVTMTGDTSTDTAYLELSSLRSEDTALYYCATGRYTRGWFNYGFDYWGQGTLVTVSS VL: EIVMTQSPATLSLSPGERATLSCRASQSVSSYLAWYQQKPGQAPRLLIYGASSRATGIPDRFSGSGSGTDFTLTISRLEPEDFAVYYCQQYNNWPYTFGQGTKLEIK | binds |  | 
12 | E31-IgG1 (antibody, V domains shown, human IgG1, human kappa) VH: QMQLVQSGAEVKKPGASVKVSCKVSGYTLTELSIHWVRQAPGKGLEWMGGFDPEDGETIYAQKSQGRVTMTGDTSTDTAYLELSSLRSEDTALYYCATGRYSESFASYGFDYWGQGTLVTVSS VL: EIVMTQSPATLSLSPGERATLSCRASQSVSSYLAWYQQKPGQAPRLLIYGASSRATGIPDRFSGSGSGTDFTLTISRLEPEDFAVYYCQQYDNWPYTFGQGTKLEIK | binds |  | 
13 | E164-IgG1 (antibody, V domains shown, human IgG1, human kappa) VH: QMQLVQSGAEVKKPGASVKVSCKVSGHTLTELSMHWVRQAPGKGLEWMGGFDPEDGETIYAQKSQGRVTMTGDTSTDTAYLELSSLRSEDTALYYCATGRYTNDFANYGFDYWGQGTLVTVSS VL: EIVMTQSPATLSLSPGERATLSCRASQSVSSYLAWYQQKPGQAPRLLIYGASSRATGIPDRFSGSGSGTDFTLTISRLEPEDFAVYYCQQYNNWPYTFGQGTKLEIK | binds |  | 
14 | E90-IgG1 (antibody, V domains shown, human IgG1, human kappa) VH: QMQLVQSGAEVKKPGASVKVSCKVSGYTLTELSIHWVRQAPGKGLEWMGGFDPEDGETIYAQKSQGRVTMTGDTSTDTAYLELSSLRSEDTALYYCATGRYTGLYASYGFDYWGQGTLVTVSS VL: EIVMTQSPATLSLSPGERATLSCRASQSVSSYLAWYQQKPGQAPRLLIYGASSRATGIPDRFSGSGSGTDFTLTISRLEPEDFAVYYCQQYDNWPYTFGQGTKLEIK | binds |  | 
15 | E29-IgG1 (antibody, V domains shown, human IgG1, human kappa) VH: QMQLVQSGAEVKKPGASVKVSCKVSGHTLTELSIHWVRQAPGKGLEWMGGFDPEDGETIYAQKFQGRVTMTGDTSTDTAYLELSSLRSEDTALYYCATGRYCFPDTCYGFDYWGQGTLVTVSS VL: EIVMTQSPATLSLSPGERATLSCRASQSVSSYLAWYQQKPGQAPRLLIYGASSRATGIPDRFSGSGSGTDFTLTISRLEPEDFAVYYCQQYDNSPHTFGQGTKLEIK |  | binds | 
16 | E88-IgG1 (antibody, V domains shown, human IgG1, human kappa) VH: QMQLVQSGAEVKKPGASVKVSCKVSGHTLTELSMHWVRQAPGKGLEWMGGFDPEDGETIYAQKFQGRVTMTGDTSTDTAYLELSSLRSEDTALYYCATGRYCHKDGCYGFDYWGQGTLVTVSS VL: EIVMTQSPATLSLSPGERATLSCRASQSVSSYLAWYQQKPGQAPRLLIYGASSRATGIPDRFSGSGSGTDFTLTISRLEPEDFAVYYCQQYDSSPHTFGQGTKLEIK | binds |  | 
17 | E16-IgG1 (antibody, V domains shown, human IgG1, human kappa) VH: QMQLVQSGAEVKKPGASVKVSCKVSGYTLTELSIHWVRQAPGKGLEWMGGFDPEDGEAIYAQKSQGRVTMTGDTSTDTAYLELSSLRSEDTALYYCATGRYSEHSTSYGFDYWGQGTLVTVSS VL: EIVMTQSPATLSLSPGERATLSCRASQSVSSYLAWYQQKPGQAPRLLIYGASSRATGIPDRFSGSGSGTDFTLTISRLEPEDFAVYYCQQYDSWPYTFGQGTKLEIK |  | binds | 
18 | E61-IgG1 (antibody, V domains shown, human IgG1, human kappa) VH: QMQLVQSGAEVKKPGASVKVSCKVSGYTLTELSMHWVRQAPGKGLEWMGGFDPEDGETIYAQKFQGRVTMTGDTSTDTAYLELSSLRSEDTALYYCATGRYAWTDIAYGFDYWGQGTLVTVSS VL: EIVMTQSPATLSLSPGERATLSCRASQSVSSYLAWYQQKPGQAPRLLIYGASSRATGIPDRFSGSGSGTDFTLTISRLEPEDFAVYYCQQYDNSPSTFGQGTKLEIK | binds |  | 
